Key:
[1] = system: T1, human EGF receptor; assay: EGF receptor dimerization monitored by β-gal complementation (FACS) in C2F3 mouse myoblasts expressing chimeric receptors; format: cell-based
T1 construct: transmembrane domains of the human EGF receptor (amino acids 1–655) was amplified; expressed in transfected cells; host or cells: C2F3 mouse myoblasts, retrovirally transduced (pWZL-Δα-neo, pWZL-Δω-hygro), selected clone
Excerpt: (§1) Construction of chimeric receptors. The weakly complementing Δα and Δω deletion mutants of β-gal were each linked to a polypeptide sequence containing the extracellular and transmembrane domains of the human EGF receptor to form chimeric receptor molecules. The chimeric receptors lacked the cytoplasmic domain, and attendant tyrosine kinase activity, of the native receptor. The procedure was as follows. The sequence coding for the extracellular and transmembrane domains of the human EGF receptor (amino acids 1–655) was amplified by polymerase chain reaction (PCR) using primers that incorporated an NcoI site at the 5′ end and an XhoI site at the 3′ end of the PCR product. Although this fragment retains threonine 654, which is a site of protein kinase C (PKC) phosphorylation, arginines 656 and 657 are removed, destroying the consensus PKC recognition sequence. The amino acid sequence beginning with threonine 654 is thr-leu-glu-ser-met, with the met residue being the beginning of the β-gal sequence. The glu and ser codons are generated by the junction sequence and are not native to either EGF or β-gal.
(§2) DNAs encoding the chimeric receptors were inserted into a retroviral vector also encoding a selectable marker. For the construct containing the EGF receptor-Δα fusion, the selectable marker was the neo gene, encoding G418 resistance; while the EGF receptor-Δω fusion specified hygromycin resistance (FIG. 1B). Accordingly, the EGF receptor PCR product was digested and cloned into the NcoI and XhoI sites of the pWZL-Δα and pWZL-Δω vectors. The pWZL-Δα-neo and pWZL-Δω-hygro plasmids were constructed by cloning the lacZ Δα and Δω deletion mutants into pWZL-neo and pWZL-hygro, respectively. Mohler et al., supra; and Rossi et al. (1997) Proc. Natl. Acad. Sci. USA 94:8405–8410. Plasmids were transfected into φNX cells using Lipofectamine (Life Technologies), and virus-containing supernatant was harvested 48–72 hours later. C2F3 mouse myoblasts (Rastinejad et al. (1993) Cell 72:903–917) maintained in DME with 20% fetal bovine serum (FBS) in 10% CO2, were infected by overnight incubation in the viral supernatant. Cells containing both constructs were selected in 1 mg/ml G418 plus 1 mg/ml hygromycin, and were maintained in 400 μg/ml of each antibiotic.
(§3) EGF treatment and FACS analysis Cells were treated with mouse salivary gland EGF (Sigma) at 100 ng/ml and in some experiments were treated with tyrphostin AG1478 (Calbiochem) at 100 nM. Following all treatments, cells were rinsed with phosphate buffered saline (PBS), trypsinized, and resuspended in PBS+5% FBS. Fluorescein di-β-D-galactopyranoside (FDG; Molecular Probes) was loaded into the cells by hypotonic shock as described. Fiering et al. (1991) Cytometry 12:291–301 and Nolan et al. (1988) Proc. Natl. Acad. Sci. USA 85:2603–2607. Cells were kept on ice until analysis on the cell sorter, which was conducted 1 to 2 hours after trypsinization.
(§4) The chimeric receptor was detected by immunofluorescence using a monoclonal mouse anti-human EGF receptor antibody diluted 1:100 (clone EGFR1, Dako) and either phycoerythrin-labeled horse anti-mouse IgG (Vector) or fluorescein-labeled goat anti-mouse IgG (Cappel) diluted 1:100. Cells were trypsinized and stained in PBS+5% FBS. For each sample, FACS analysis data was collected for 5000 cells. Cells were cloned on a Becton-Dickinson FACS Vantage and analyzed on a Becton-Dickinson FACS can at the Stanford Shared FACS Facility. Data analysis was facilitated by FlowJo software (Tree Star, Inc.). Data shown here as FACS profiles were adjusted for autofluorescence using autofluorescence compensation. Alberti et al. (1987) Cytometry 8:114–119. Mean fluorescence data were adjusted for autofluorescence and for endogenous mammalian β-gal activity by subtracting the mean fluorescence of untransduced cells loaded with FDG substrate.

[2] = target: T2, human EGF receptor (Homo sapiens, UniProt P00533); assay: as above; format: cell-based
T2 construct: transmembrane domains of the human EGF receptor (amino acids 1–655) was amplified; expressed in transfected cells; host or cells: C2F3 mouse myoblasts, retrovirally transduced (pWZL-Δα-neo, pWZL-Δω-hygro), selected clone
Excerpt: as §1, §2, §3, §4

T1 sequence (Q01279 25-1210): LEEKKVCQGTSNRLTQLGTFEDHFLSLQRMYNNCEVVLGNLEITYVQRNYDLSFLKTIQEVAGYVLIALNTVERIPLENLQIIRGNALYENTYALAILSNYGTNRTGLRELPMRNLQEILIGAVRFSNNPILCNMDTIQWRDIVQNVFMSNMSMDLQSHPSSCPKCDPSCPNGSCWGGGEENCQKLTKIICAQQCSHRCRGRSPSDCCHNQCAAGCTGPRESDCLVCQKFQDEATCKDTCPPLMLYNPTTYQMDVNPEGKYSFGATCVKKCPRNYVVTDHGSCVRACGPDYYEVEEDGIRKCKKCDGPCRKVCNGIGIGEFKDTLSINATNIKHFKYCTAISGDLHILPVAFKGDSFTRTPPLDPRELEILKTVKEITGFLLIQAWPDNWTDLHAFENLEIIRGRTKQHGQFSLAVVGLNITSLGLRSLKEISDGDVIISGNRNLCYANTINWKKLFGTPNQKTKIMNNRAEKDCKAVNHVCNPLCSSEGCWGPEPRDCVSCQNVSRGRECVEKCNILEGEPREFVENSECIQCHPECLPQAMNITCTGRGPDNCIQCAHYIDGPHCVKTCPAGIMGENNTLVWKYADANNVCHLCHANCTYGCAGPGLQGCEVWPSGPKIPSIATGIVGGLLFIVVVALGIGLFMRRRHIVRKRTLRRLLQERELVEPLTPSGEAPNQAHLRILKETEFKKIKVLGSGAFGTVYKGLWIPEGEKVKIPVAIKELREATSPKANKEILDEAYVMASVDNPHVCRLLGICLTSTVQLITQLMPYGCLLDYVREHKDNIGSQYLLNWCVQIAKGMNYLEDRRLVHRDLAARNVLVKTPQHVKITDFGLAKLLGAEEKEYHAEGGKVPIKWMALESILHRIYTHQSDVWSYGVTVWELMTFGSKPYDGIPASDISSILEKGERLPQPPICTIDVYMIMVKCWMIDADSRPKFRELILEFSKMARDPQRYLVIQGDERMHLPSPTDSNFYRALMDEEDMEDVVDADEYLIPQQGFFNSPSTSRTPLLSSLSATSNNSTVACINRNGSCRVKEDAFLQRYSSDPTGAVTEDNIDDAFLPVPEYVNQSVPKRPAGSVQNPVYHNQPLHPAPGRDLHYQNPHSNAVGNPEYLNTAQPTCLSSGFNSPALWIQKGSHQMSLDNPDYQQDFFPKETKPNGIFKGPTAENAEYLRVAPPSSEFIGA

## COc1cc2ncnc(Nc3cccc(Cl)c3)c2cc1OC [tyrphostin AG1478, reference compound]
[1]; 100 nM tyrphostin AG1478 + 100 ng/ml EGF, treatment times of up to 6 hours, FIG. 9B
  β-gal activity of cells given tyrphostin and EGF versus EGF alone: greater β-gal activity than cells that received EGF alone
[1]; by 8 hours of treatment
  difference in EGF receptor dimerization between EGF and EGF+tyrphostin treated cells: no difference
[1]; tyrphostin every four hours
  effect of repeated administration of tyrphostin on the increased β-gal activity: did not further prolong the increased β-gal activity

## EGF: mouse salivary gland EGF (Sigma)
[2]; 100 ng/ml EGF for 0 to 24 hours, FIG. 8
  time at which dimerization peaked: 2 to 4 h
[2]; 100 ng/ml EGF for two hours, FIG. 7E
  increase in β-gal activity (chimeric receptor dimerization) in selected clone: several-fold increase
[2]; 100 ng/ml EGF, mean fluorescence, FIG. 7F
  shortest EGF treatment at which dimerization could be detected: one
[2]; 100 ng/ml EGF, over the period that dimerization decreased, FIG. 8
  amount of chimeric receptor on the cell surface (immunofluorescence, FACS): remained essentially constant
[2]; during the decline in dimerization, EGF still present
  response (dimerization) to a second EGF treatment: minimal

## betacellulin: EGF-like growth factor that binds and activates the EGF receptor
[2]
  dimerization of chimeric EGF receptor following stimulation with EGF-like growth factor: Dimerization was also observed

## TGF-α: EGF-like growth factor that binds and activates the EGF receptor
[2]
  dimerization of chimeric EGF receptor following stimulation with EGF-like growth factor: Dimerization was also observed

## heparin-binding EGF-like growth factor: EGF-like growth factor that binds and activates the EGF receptor
[2]
  dimerization of chimeric EGF receptor following stimulation with EGF-like growth factor: Dimerization was also observed
